Measured values: patent publication US20220056125A1

Target: cynomolgus PAR-2 on cells (cynomolgus monkey)
Assay: cell-based or functional assay

IC50 mean, calcium flux at SLIGKV EC80, Nomad line: 3.98 nM
IC50 mean, β-arrestin at SLIGKV EC80, Nomad line: 15.2 nM
B1: P24E1102 (antibody, human IgG4 S228P, kappa, V domains shown)
VH: QVQLVQSGAEVKKPGSSVKVSCKASGFSLSSYAISWVRQAPGQGLEWMGVIWGNQNVYYAQKFQGRVTITADESTSTAYMELSSLRSEDTAVYYCARWKGYKDYPFDYWGQGTLVTVSS
VL: EIVLTQSPATLSLSPGERATLSCRASQNVYKWLDWYQQKPGQAPRLLIYNANTRATGIPARFSGSGSGRDFTLTISSLEPEDFAVYYCQQHHSGWTFGGGTKVEIKR
